Where no end group is shown, it is not given here.
Assays:
[1] = isoelectric focusing in polyacrylamide slab gel, mobility compared with commercial pI markers; type: physicochemical; conditions: fluorescence-labeled (5-carboxytetramethylrhodamine) oligopeptide, carrier ampholyte pH 3.5-10, vs pI calibration kit 3-10 (range pI 9.30-3.5)
Description: In the present invention, pI of each marker for isoelectric focusing with fluorescence detection can be determined by performing isoelectric focusing to compare a mobility thereof with those of commercially available markers for isoelectric focusing or to directly measure pH at a position of migration of the labeled peptide. The isoelectric focusing preferably applicable is isoelectric focusing in polyacrylamide slab gel (see […]., Isoelectric Focusing: Theory, Methodology and Applications, Elsevier, Amsterdam, 1983). […] The focusing conditions were as follows: started at […] and focusing the voltage was increased at intervals of 15 minutes to 100 V, 200 V, 400 V, and 600 V. After focusing, fluorescence-labeled oligopeptides in the gel were photographed through an orange filter under illumination with ultraviolet light, thereby checking focusing positions thereof. […] After staining, de-stained with a mixed solvent of methanol and acetic acid to obtain a clear background, thereby checking the focusing positions. FIG. 5,6,and 7 show the focusing positions of the 24 fluorescence-labeled oligopeptides obtained and the isoelectric focusing markers commercially available.

[2] = unlabeled protein; cited from earlier work

| Substance | pI Observed [1] | pI (known) of conventional protein pI marker [2] |
| --- | --- | --- |
| DDEHHHKR [No 20, oligopeptide labeled with 5-carboxytetramethylrhodamine] | 4.70 | – |
| DEYHKR [No 12, oligopeptide labeled with 5-carboxytetramethylrhodamine] | 5.55 | – |
| EHHHKR [No 17, oligopeptide labeled with 5-carboxytetramethylrhodamine] | 7.90 | – |
| Glu--His--Lys--Arg (EHKR; printed: Glu--His--Lys--Arg) [No 9, oligopeptide labeled with 5-carboxytetramethylrhodamine] | 7.65 | – |
| Tyr--Tyr--His--Lys--Arg (YYHKR; printed: Tyr--Tyr--His--Lys--Arg) [No 8, oligopeptide labeled with 5-carboxytetramethylrhodamine] | > 9.30 | – |
| bovine carbonic anhydrase [reference compound] | – | 6.00 |
| human carbonic anhydrase [reference compound] | – | 6.50 |
| human hemoglobin A [reference compound] | – | 7.10 |
| phycocyanin [reference compound] | – | 4.65 |
| β-lactoglobulin B [reference compound] | – | 5.10 |

— patent US5866683A, “Isoelectric point markers for isoelectric focusing with fluorescence detection” (Laboratory of Molecular Biophotonics, priority 1995, dated 1999)
